Assay results as given in patent US20180030111A1.
Read-outs that look alike come from different tables or passages of the source.

How the values were obtained:
[1] = target: C1q complement (rabbit serum as complement source) (rabbit); experiment: cell-based or functional assay
[2] = target: FcgRIIIa receptor (CD16a) on human NK cells (human) (UniProt P08637); experiment: cell-based or functional assay
[3] = target: FcgRIIIa receptor (CD16a) on human NK cells (human) (UniProt P08637); experiment: cell-based or functional assay; remark: listed apart in the source
[4] = target: C1q complement (rabbit serum as complement source) (rabbit); experiment: cell-based or functional assay; remark: listed apart in the source
[5] = target: CD32b (FcgRIIb receptor) (human) (UniProt P31994); experiment: ELISA, purified IgG on coated receptor, ratio against wild-type
[6] = target: CD32aH (FcgRIIa receptor, H at position 131) (human) (UniProt P12318); experiment: as above
[7] = target: CD32aR (FcgRIIa receptor, R at position 131) (human) (UniProt P12318); experiment: as above
CD64 = CD64 (UniProt P12314); experiment: as above
[8] = target: C1q complement (rabbit serum as complement source) (rabbit); experiment: cell-based or functional assay; remark: listed apart in the source

Sequence of CD32b (FcgRIIb receptor) (human) (P31994 46-217): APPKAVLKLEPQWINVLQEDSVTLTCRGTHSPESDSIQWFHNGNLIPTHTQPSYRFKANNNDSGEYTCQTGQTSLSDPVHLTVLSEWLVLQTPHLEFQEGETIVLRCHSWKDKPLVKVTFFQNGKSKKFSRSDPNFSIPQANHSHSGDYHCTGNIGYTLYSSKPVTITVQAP
Sequence of FcgRIIIa receptor (CD16a) on human NK cells (human) (P08637 17-254): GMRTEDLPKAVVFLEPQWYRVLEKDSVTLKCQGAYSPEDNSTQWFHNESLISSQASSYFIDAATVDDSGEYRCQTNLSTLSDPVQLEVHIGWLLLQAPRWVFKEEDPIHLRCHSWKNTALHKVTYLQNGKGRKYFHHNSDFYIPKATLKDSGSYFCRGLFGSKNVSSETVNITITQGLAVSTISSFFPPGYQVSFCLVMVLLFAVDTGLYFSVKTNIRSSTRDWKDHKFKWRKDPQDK
Sequence of CD32aH (FcgRIIa receptor, H at position 131) (human) (P12318 34-217): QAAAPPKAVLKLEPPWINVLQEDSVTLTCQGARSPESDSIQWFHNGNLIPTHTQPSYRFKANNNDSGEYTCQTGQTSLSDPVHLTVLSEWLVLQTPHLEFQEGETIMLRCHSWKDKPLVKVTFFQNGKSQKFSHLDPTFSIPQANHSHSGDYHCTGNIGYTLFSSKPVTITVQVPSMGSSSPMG
Sequence of CD64 (P12314 16-288 limits assumed): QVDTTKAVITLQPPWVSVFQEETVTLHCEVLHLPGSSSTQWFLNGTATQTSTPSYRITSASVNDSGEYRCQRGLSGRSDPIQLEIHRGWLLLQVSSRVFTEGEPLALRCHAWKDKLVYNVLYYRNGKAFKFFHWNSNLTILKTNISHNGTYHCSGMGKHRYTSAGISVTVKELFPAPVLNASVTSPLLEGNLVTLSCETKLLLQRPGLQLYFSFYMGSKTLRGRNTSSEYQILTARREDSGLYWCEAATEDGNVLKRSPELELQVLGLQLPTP

Substance | CDC, Antibody concentration (ng/ml) giving 50% lysis of an internal control [1] [ng/mL] | CDC, Ratio [WT]/[antibody] [1] | ADCC, EC50: Antibody concentration (ng/ml) giving 50% maximum lysis of an internal control [2] [ng/mL] | ADCC, Ratio [WT]/[antibody] [2] | ADCC [3] | ADCC, EC50: Antibody concentration (ng/ml) giving 50% maximum lysis of an internal control [3] [ng/mL] | ADCC, Ratio [WT]/[antibody] [3] | CDC [1] | CDC, Antibody concentration (ng/ml) giving 50% lysis of an internal control [4] [ng/mL] | CDC, Ratio [WT]/[antibody] [4] | ELISA ratio (purified antibodies) [5] | ELISA ratio (purified antibodies) [6] | ELISA ratio (purified antibodies) [7] | ELISA ratio (purified antibodies) (CD64) | ADCC, EC45: Antibody concentration (ng/ml) giving 45% maximum lysis of an internal control [3] [ng/mL] | CDC, Antibody concentration (ng/ml) giving 50% lysis of an internal control [8] [ng/mL] | CDC, Ratio [WT]/[antibody] [8]
anti-CD20 IgG variant A3A-31 (K334R, L410R) (antibody) | 108 | 2.42 | 1.84 | 0.24 | – | – | – | – | – | – | – | – | – | – | – | – | –
anti-CD20 IgG variant N3A-87 (K290E, K320E, T350A, P396L) (antibody) | – | – | – | – | 1 | – | 1 | 1.3 | – | – | 9 | 3.92 | 3.7 | 1.5 | 1 | 106 | 1.25
anti-CD20 IgG1 with wild-type Fc (IgG-WT) (antibody) | 262 | 1 | 0.45 | – | – | 10.5 | 1 | – | 237 | – | – | – | – | – | 1.6 | 133 | –
anti-CD20 IgG variant A3A-173 (K248E, K334R, A378V) (antibody) | 16 | 16.4 | 1.38 | 0.33 | 0.3 | – | – | 29.5 | – | – | 1.3 | 0.95 | 1.3 | 1.2 | – | – | –
anti-CD20 IgG variant O3A-05 (K290E, T366A, A378V) (antibody) | – | – | – | – | 8 | – | 8 | 1.5 | – | – | 4.5 | 4.02 | 3.3 | 1.2 | 0.2 | 91 | 1.46
anti-CD20 IgG variant G3A-95 (I336T, A378V) (antibody) | – | – | – | – | 10.8 | 0.97 | 10.8 | 1.3 | 177 | 1.34 | 1 | 0.7 | 0.9 | 1.3 | – | – | –
anti-CD20 IgG variant K3B-01 (N315D, N361H, P396L) (antibody) | – | – | – | – | 15.2 | 0.69 | 15.2 | 4 | 59.6 | 3.97 | 1 | 5.7 | 1 | 2.3 | – | – | –
anti-CD20 IgG variant Q3A-39 (N286I, P396L, N421T) (antibody) | – | – | – | – | 5.3 | – | 5.33 | 2.2 | – | – | 3.8 | 4.83 | 2.3 | 1.5 | 0.3 | 61 | 2.18

Results, then the substance that gave them:

CDC, Antibody concentration (ng/ml) giving 50% lysis of an internal control [1] [ng/mL] | CDC, Ratio [WT]/[antibody] [1] | ADCC, EC50: Antibody concentration (ng/ml) giving 50% maximum lysis of an internal control [2] [ng/mL] | ADCC, Ratio [WT]/[antibody] [2] | ADCC [3] | ADCC, EC50: Antibody concentration (ng/ml) giving 50% maximum lysis of an internal control [3] [ng/mL] | ADCC, Ratio [WT]/[antibody] [3] | CDC [1] | CDC, Antibody concentration (ng/ml) giving 50% lysis of an internal control [4] [ng/mL] | CDC, Ratio [WT]/[antibody] [4] | ELISA ratio (purified antibodies) [5] | ELISA ratio (purified antibodies) [6] | ELISA ratio (purified antibodies) [7] | ELISA ratio (purified antibodies) (CD64) | ADCC, EC45: Antibody concentration (ng/ml) giving 45% maximum lysis of an internal control [3] [ng/mL] | CDC, Antibody concentration (ng/ml) giving 50% lysis of an internal control [8] [ng/mL] | CDC, Ratio [WT]/[antibody] [8] | Substance
– | – | – | – | 10.8 | 0.97 | 10.8 | 11 | 21.6 | 11 | 3.7 | 2.7 | 1.8 | 1.4 | – | – | – | anti-CD20 IgG variant J3B-118A (P396L, N421T, A378V) (antibody)
– | – | 1.37 | – | – | – | – | – | – | – | – | – | – | – | – | – | – | anti-CD20 IgG variant A3A-105 (G316D, K326E) (antibody)
145 | – | 0.57 | – | – | – | – | 3.2 | – | – | – | – | – | – | – | – | – | anti-CD20 IgG variant J3B-115 (T359A, S383R, V397M) (antibody)
– | – | – | – | 8.3 | 1.27 | 8.28 | 3.7 | 64.1 | 6.7 | 2.4 | 0.84 | 2 | 1.3 | – | – | – | anti-CD20 IgG variant J3A-06 (A378T, V397M, V412M) (antibody)
– | – | – | – | 1.3 | 8.07 | 1.3 | 0.9 | 274 | 0.86 | 3.9 | 2.94 | 3.7 | 2.4 | – | – | – | anti-CD20 IgG variant G3A-88 (K320E, T394P, G402D) (antibody)
– | – | – | – | 18.4 | 0.57 | 18.4 | 7.6 | 31 | 7.64 | 1.6 | 1.1 | 1.3 | 1.3 | – | – | – | anti-CD20 IgG variant J3A-28 (E333G, A378T, V397M) (antibody)
– | – | – | – | 8.3 | 1.27 | 8.28 | 1.8 | 132 | 1.79 | 1.7 | 2.61 | 1.7 | 1.3 | – | – | – | anti-CD20 IgG variant J3A-16 (N286Y, P352S, A378V) (antibody)
– | – | – | – | 30.9 | 0.34 | 30.9 | 3.2 | 74.1 | 3.2 | 3.1 | 1.3 | 4.3 | 1.5 | – | – | – | anti-CD20 IgG variant A3A-184A (K334N, P352S, V397M, A378V) (antibody)
– | – | – | – | 8.3 | 1.27 | 8.28 | 6.1 | 38.5 | 6.14 | 2 | 1.4 | 2.6 | 1.5 | – | – | – | anti-CD20 IgG variant A3A-105D (G316D, K326E, A378V) (antibody)
